The experiment concerns the target T1, GST-PPIL1 fusion protein (human, UniProt Q9Y3C6 1-166).
T1 construct: Peptidyl-prolyl isomerase like 1 (PPIL1), human, full length, cloned from a human cDNA library into pGEX-6P1; also called Recombinant GST-PPIL1; Peptidyl-prolyl isomerase like 1; source: E. coli Rosetta 2, glutathione-sepharose
T1 sequence (looked up): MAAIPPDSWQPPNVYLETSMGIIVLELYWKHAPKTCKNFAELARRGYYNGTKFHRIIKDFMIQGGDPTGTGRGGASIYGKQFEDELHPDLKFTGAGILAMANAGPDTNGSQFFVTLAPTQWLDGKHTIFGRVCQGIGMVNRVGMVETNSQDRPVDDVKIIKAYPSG
The experiment can be described thus: peptide or protein array; SKIP 20-mer peptides on cellulose membrane; GST-PPIL1 or GST alone at 40 µg/ml in blocking buffer (5% milk powder, 5% saccharose in TBS, pH 8.0), overnight at 4°C; detected with anti-GST antibody and chemiluminescence. The note with it: both partners purified.

B1: peptide A12 of the SKIP peptide array (peptide, UniProt Q13573 60-79, looked up)
peptide: DGGAFPEIHVAQYPLDMGRK
notes: The limits fit the twelfth peptide of a scan that starts at residue 49 with a one amino acid offset; source: synthetic peptide, spotted on cellulose membrane
In the case of B1, the binding result is given as “binds”.

These data come from PMC2848857, “The Crystal Structure of PPIL1 Bound to Cyclosporine A Suggests a Binding Mode for a Linear Epitope of the SKIP Protein” (PLoS ONE, 2010).
